Experimental data published in article PMC8303963, “Action of Multiple Rice β-Glucosidases on Abscisic Acid Glucose Ester” (International Journal of Molecular Sciences, 2021).

System: T1, CC1=CC(=O)CC(C)(C)[C@@]1(O)/C=C/C(C)=C\C(=O)O[C@@H]1O[C@H](CO)[C@@H](O)[C@H](O)[C@H]1O
T1 construct: recombinant from E. coli, IMAC purified; N-terminal thioredoxin and His6 tags cut off with enterokinase
Assay: glucose release by peroxidase/glucose oxidase assay, Michaelis-Menten fit
Format: biochemical, Oryza sativa
Settings: 50 mM sodium acetate pH 5, 30 °C
Description: glucose release by peroxidase/glucose oxidase assay, Michaelis-Menten fit on Os4BGlu13

Os4BGlu13 (Oryza sativa Japonica Group), sequence (chain, as listed by the source): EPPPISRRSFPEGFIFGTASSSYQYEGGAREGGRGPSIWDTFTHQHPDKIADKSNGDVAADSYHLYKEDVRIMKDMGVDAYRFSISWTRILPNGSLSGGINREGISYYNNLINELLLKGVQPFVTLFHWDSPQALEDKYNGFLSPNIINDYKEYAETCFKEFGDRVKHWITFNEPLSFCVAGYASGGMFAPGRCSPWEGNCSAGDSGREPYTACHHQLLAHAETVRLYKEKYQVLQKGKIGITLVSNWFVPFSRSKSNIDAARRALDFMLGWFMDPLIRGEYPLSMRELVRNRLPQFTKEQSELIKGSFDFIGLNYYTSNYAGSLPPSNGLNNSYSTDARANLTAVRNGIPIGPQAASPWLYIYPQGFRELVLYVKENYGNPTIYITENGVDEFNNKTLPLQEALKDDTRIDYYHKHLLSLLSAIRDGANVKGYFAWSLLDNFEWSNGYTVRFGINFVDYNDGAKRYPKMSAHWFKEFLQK

Os4BGlu13 (Oryza sativa Japonica Group)
Km: 1660 ± 90 µM | kcat: 20.6 ± 0.5 s⁻¹ | kcat/Km: 12400 M⁻¹ s⁻¹
